These results are taken from paper PMC2891831, “Insight into the Mechanisms of Adenovirus Capsid Disassembly from Studies of Defensin Neutralization” (PLoS Pathogens, 2010).

Common to all, as to assay type: cell-based, human adenovirus
The test system of one experiment is HAdV species B2. As to the kind of experiment: Infection assay (hexon staining), HAdV species B2. The following applies: 15 µM HD5, A549 cells, hexon staining at ~48 h, vs. no defensin. The method, then: (§1) To determine whether sensitivity to α-defensins is a general property of HAdVs, serotypes representative of HAdV species A–F were tested for infectivity in the presence of 15 µM HD5 or HNP1 (Figure 1). Wild type HAdVs rather than vectors were used for these studies, and infectivity was assessed by staining for hexon production. […] These studies indicate that sensitivity to α-defensins is species specific. In addition, particular HAdV serotypes are not equally sensitive to all defensins, indicating defensin sequence specificity as well.
(§2) Figure 1 Sensitivity to neutralization by alpha-defensins is AdV species specific. HAdVs were incubated with 15 µM HD5 (A) or HNP1 (B) and assessed for infectivity on A549 cells. Data are the mean of the percent infectivity compared to control cells infected with each virus in the absence of defensin for at least three independent experiments ± SD. The upper limit for quantification of this assay is 200%. […]
(§3) Prior to use in this assay, each virus stock was titrated on A549 cells. […] In parallel, wells were infected with two-fold serial dilutions of each virus to establish a standard curve for quantification with an upper limit of 200%. […] Total well fluorescence above background was quantified with ImageJ software. For each virus, samples were quantified by nonlinear regression against the standard curve using Prism software (GraphPad Software, Inc., La Jolla, CA).

The next experiment relates to Ad5.eGFP. As to the kind of experiment: Ad5.eGFP infection, eGFP-positive cells by flow cytometry. To be noted: 15 µM defensin, percent eGFP positive cells vs. no defensin, at least three independent experiments. From the text: To gain further insight into the defensin-HAdV interaction, we assessed the requirement for two conserved structural elements on the anti-AdV activity of HD5. All defensins have three disulfide bonds (Figure 3A). […] The antibacterial properties of defensins, which are dependent upon protein-lipid interactions, are not uniformly conformation dependent [27]–[29]. […] In contrast, defensin-related chemokine activity, which relies on protein-protein interactions, is dependent on defensin conformation. We hypothesized that the defensin-capsid interaction for sensitive serotypes would likely be dependent upon defensin conformation, as this would be more typical for protein-protein interactions. […]
Figure 3 HD5 antiviral activity is structure dependent. […] C) Binding of Alexa Fluor 488-labeled HAdV-5 to cells was assessed after incubation with or without 20 µM HD5 or HD5-Abu and in competition with 100 nM 5FK or 16 FK. Data are the mean fold increase in geometric mean fluorescence compared to cells alone and are of at least 10,000 cells from each of three independent experiments ± SD.
To test the activity of HD5 derivates, Ad5.eGFP was incubated with 15 µM of HD5, HD5-Abu, or HD5-E14Q. Infectivity was assessed by enumerating eGFP-positive cells by flow cytometry as described.

In another experiment the test system is HAdV species A. As to the kind of experiment: Infection assay (hexon staining), HAdV species A. To be noted: 15 µM HD5, A549 cells, hexon staining at ~48 h, vs. no defensin, at least three independent experiments. The method, then: as §1, §2, §3

B1: HD5: human alpha-defensin; synthetic, obtained from Peptides International; three disulfide bonds (PDB 1ZMP) (peptide, UniProt Q01523 20-94, looked up)
Defensin alpha 5: ESLQERADEATTQKQSGEDNQDLAISFAGNGLSALRTSGSQARATCYCRTGRCATRESLSGVCEISGRLYRLCCR
modifications: Defensin-5
As for B1, the “sensitivity to neutralization (infectivity)” value in the experiment on HAdV species B2 and in the experiment with HAdV species A was “sensitive” throughout. The “antiviral activity against Ad5.eGFP” value in the experiment with Ad5.eGFP is “only correctly folded HD5 has antiviral activity”.
